In patent US20250109190A1 (BYOMASS, published 2025):
Positions count from the first letter of the chain named.

Key:
Assay in all cases: BLI Octet; IgG, avid
BMP9 = target: T1, BMP9 (UniProt Q9UK05 320-429)
T1 sequence (looked up): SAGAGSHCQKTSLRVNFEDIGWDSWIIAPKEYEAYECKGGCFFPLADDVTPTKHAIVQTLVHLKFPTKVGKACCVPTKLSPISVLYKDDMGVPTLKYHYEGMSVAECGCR

BMP10 = target: T2, BMP10 (UniProt O95393 317-424)
T2 sequence (looked up): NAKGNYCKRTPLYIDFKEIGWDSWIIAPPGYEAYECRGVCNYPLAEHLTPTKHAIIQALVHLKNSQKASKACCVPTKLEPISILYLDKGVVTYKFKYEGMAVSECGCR

GDF15 Fc = target: T3, GDF15 Fc (UniProt Q99988 197-308, limits assumed)
T3 construct: species not given; not shown: Fc part of the fusion
T3 sequence (looked up): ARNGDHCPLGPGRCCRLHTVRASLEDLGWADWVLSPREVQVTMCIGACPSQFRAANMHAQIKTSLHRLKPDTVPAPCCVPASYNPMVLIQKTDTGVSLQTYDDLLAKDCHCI

human GDNF = target: T4, human GDNF (human, UniProt P39905 78-211, limits assumed)
T4 sequence (looked up): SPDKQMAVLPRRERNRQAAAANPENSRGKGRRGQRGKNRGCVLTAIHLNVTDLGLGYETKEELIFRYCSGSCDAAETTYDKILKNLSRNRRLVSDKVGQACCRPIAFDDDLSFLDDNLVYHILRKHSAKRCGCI

human GDF8 = human GDF8 (human, UniProt O14793 267-375)
human GDF10 = target: T5, human GDF10 (human, UniProt P55107 369-478)
T5 sequence (looked up): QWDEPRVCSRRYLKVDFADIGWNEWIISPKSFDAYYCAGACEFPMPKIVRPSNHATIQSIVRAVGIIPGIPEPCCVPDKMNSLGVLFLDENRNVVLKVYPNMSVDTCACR

human GDF11 = human GDF11 (human, UniProt O95390 299-407)

Measured: binding result

Chain of human GDF11 (O95390 299-407 limits assumed): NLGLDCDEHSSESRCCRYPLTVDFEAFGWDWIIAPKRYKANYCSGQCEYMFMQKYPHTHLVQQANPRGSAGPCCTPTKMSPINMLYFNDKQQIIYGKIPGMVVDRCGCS

B1: Antibody B (Clone B), IgG (antibody, V domains shown)
VH: QVQLVQSGAEVKKPGASVKVSCKASGYTFIGYDMHWVRQAPGQGLEWMGVINPSSGGTNYAQKFQGRVTMTRDTSISTAYMELSRLRSDDTAVYYCARARDIAALGLGAFDYWGQGTLVTVSS
VL: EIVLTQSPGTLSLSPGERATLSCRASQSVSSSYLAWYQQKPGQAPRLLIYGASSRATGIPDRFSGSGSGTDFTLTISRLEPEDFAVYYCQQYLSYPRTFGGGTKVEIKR
notes: IgG
not listed: human GDF11
no binding (tested: 100 nM): all other assays above

B2: Antibody C (Clone C), IgG (antibody, V domains shown)
VH: B1 VH with I30P, D33H, G57D
VL: EIVLTQSPGTLSLSPGERATLSCRASQSVSSSYLAWYQQKPGQAPRLLIYGASSRAGGIPDRFSGSGSGTDFTLTISRLEPEDFAVYYCQQYVAYPRTFGGGTKVEIKR
notes: IgG
not listed: human GDF11
no binding (tested: 100 nM): all other assays above

B3: Antibody D (Clone D), IgG (antibody, V domains shown)
VH: B1 VH with I30F, D33S, G57D
VL: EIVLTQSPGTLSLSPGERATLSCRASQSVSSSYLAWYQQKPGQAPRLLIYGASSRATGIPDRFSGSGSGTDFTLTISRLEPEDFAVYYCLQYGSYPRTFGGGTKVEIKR
notes: IgG
not listed: human GDF11
no binding (tested: 100 nM): all other assays above

B4: Antibody E (Clone E), IgG (antibody, V domains shown)
VH: B1 VH with I30H, D33N, V50S, S54Y, G57Y, N59I, L105A
VL: B2 VL with S30R, G57T, A94S
notes: IgG
not listed: human GDF11
no binding (tested: 100 nM): all other assays above

B5: Antibody H (Clone H), IgG (antibody, V domains shown)
VH: QVQLVQSGAEVKKPGASVKVSCKASGYTFTGYHIHWVRQAPGQGLEWMGHISAYSGTTNYAQKLQGRVTMTTDTSTSTAYMELRSLRSDDTAVYYCARARDIAAAGLGAFDYWGQGTLVTVSS
VL: B2 VL with S30R, G57T, V93S, A94N
notes: IgG
no binding (tested: 100 nM): all assays above

B6: Antibody P (Clone P), IgG (antibody, V domains shown)
VH: QVQLVQSGAEVKKPGSSVKVSCKASGGTFDDYAISWVRQAPGQGLEWMGGIIPRFGIANYAQKFQGRVTITADESTSTAYMELSSLRSEDTAVYYCARPPSSGSDWGQGTLVTVSS
VL: DIQMTQSPSSVSASVGDRVTITCRASQGIDSWLAWYQQKPGKAPKLLIYAASSLQSGVPSRFSGSGSGTDFTLTISSLQPEDFATYYCQQVHSFPITFGGGTKVEIKR
notes: IgG
no binding (tested: 100 nM): all assays above

B7: Antibody F (Clone F), IgG (antibody, V domains shown)
VH: B5 VH with A40V, H50V, T57D, A105L
VL: EIVLTQSPATLSVSPGERATLSCRASQSVSSNLAWYQQKPGQAPRLLIYGASDRATGIPARFSGSGSGTEFTLTISSLQSEDFAVYYCIQYSNYPRTFGGGTKVEIKR
notes: IgG
not listed: human GDF11
no binding (tested: 100 nM): all other assays above

B8: Antibody L (Clone L), IgG (antibody, V domains shown)
VH: QVQLQESGPGLVKPSETLSLTCAVSGYSISSGYYWGWIRQPPGKGLEWIGSIYHSGSTYYNPSLKSRVTISVDTSKNQFSLKLSSVTAADTAVYYCAREAGSGYWYLSVYGMDVWGQGTTVTVSS
VL: B7 VL with D53T, I89Q, Y91S, S92D, N93D, Y94W, R96W
notes: IgG
no binding (tested: 100 nM): all assays above

B9: Antibody M (Clone M), IgG (antibody, V domains shown)
VH: QLQLQESGPGLVKPSETLSLTCTVSGGSISSSDYYWGWIRQPPGKGLEWIGSIYYPANTYYNPSLKSRVTISVDTSKNQFSLKLSSVTAADTAVYYCARGYWNYGMDVWGQGTTVTVSS
VL: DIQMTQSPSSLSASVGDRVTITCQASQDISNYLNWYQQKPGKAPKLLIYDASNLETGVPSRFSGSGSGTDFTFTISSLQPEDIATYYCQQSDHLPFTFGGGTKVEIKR
notes: IgG
no binding (tested: 100 nM): all assays above

B10: Antibody N (Clone N), IgG (antibody, V domains shown)
VH: B9 VH with N58S
VL: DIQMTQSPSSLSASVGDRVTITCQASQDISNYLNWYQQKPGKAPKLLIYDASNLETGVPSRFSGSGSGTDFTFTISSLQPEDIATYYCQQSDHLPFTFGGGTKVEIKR
notes: IgG
no binding (tested: 100 nM): all assays above
